Test [1] addresses SARS-CoV-2 Spike Protein (RBD)(R319-F541).mFc (SARS-CoV-2). Put plainly: Luminex, supernatant.
Test [2] deals with SARS-CoV-2 Spike Protein (RBD)(R319-F541).hFc (SARS-CoV-2). Put plainly: Luminex, supernatant.
In test [3] the target is receptor binding domain (RBD) portion of the SARS-CoV-2 Spike protein (amino acids Arg319-Phe541) ex (SARS-CoV-2).
The target of test [4] is Human SARS Coronavirus Spike S1 Subunit Protein (His Tag) (Sino 40150-V08B1) (Human SARS Coronavirus, UniProt P59594 14-667). Put plainly: Luminex, supernatant.

Where “and” joins values, the source holds several entries; their conditions need not be identical. Identical values can stand only once.

B1: mAb10932 (antibody, V domains shown)
VH: EVQLVESGGGLVQSGGSLRLSCAASGLTVSSNYMSWVRQAPGKGLEWVSVIYSGGSTFYSDSVKGRFTISRHNSKNTLYLQMNSLRAEDTAVYYCARARGDAFDIWGQGTMVTVSS
VL: not shown
Take B1: the MFI in test [1] and in test [2] was 30600 MFI each time.

B2: mAb10985 (antibody, V domains shown)
VH: EVQLVESGGGLVQPGRSLRLSCAASGFTFDDYAMHWVRQAPGKGLEWVSGISWNRGSIGYADSVKGRFTISRDNAKNSLYLQMSSLRAEDTALYYCAKDGERWDSVVVPSARNGMDVWGQGTTVTVSS
VL: QSVLTQPPSVSGAPGQRVTISCTGSSSNIGAGYDVHWYQQLPGTAPKLLIYGNSNRPSGVPDRFSGSKSGTSASLAITGLQAEDEADYYCQSYDSSLSGSYVFGTGTKVTVLG
For the molecule B2, in test [3], the IC50 is 0.0696 nM and 0.0411 nM.

B3: mAb10986 (antibody, V domains shown)
VH: EVQLVESGGGLVQPGGSLRLSCAASEFTVSSNYMSWVRQAPGKGLEWVSVIYSGGSTFYADSVKGRFTISRDNSKNTLYLQMNSLRAEDTAVYYCARALPYGDLHFDYWGQGTLVTVSS
VL: QSVLTQPPSVSGAPGQRVTISCTGSSSNIGTGYDVHWYQQLPGTAPKLLIYGNTNRPSGVPDRFSGSKSGTSASLAITGLQAEDEADYYCQSYDSSLSDSYVFGTGTKVTVLG
In turn, B3 came in with an IC50 in test [3] of 0.0754 nM.

B4: mAb10982 (antibody, V domains shown)
VH: EVQLVESGGGLVQPGGSLRLSCAASGLTVSSNYMSWVRQAPGKGLEWVSVIYSGGTTYYADSVKGRFTISRHNSKNTLSLQMNSLRAEDTAVYYCARGEGANYYGMDVWGQGTTVTVSS
VL: QSVLTQPPSVSGAPGQRVTISCTGSSSNIGTGYDVHWYQQLPGTAPKLLIYGNSNRPSGVPDRFSGSKSGTSASLAITGLQAEDEADYYCQSYDSSLSGYVVFGGGTKLTVLG
Consider B4, for which the MFI in test [1] was 23300 MFI; in test [2], 23000 MFI; in test [4], 24 MFI.

B5: mAb10964 (antibody, V domains shown)
VH: QVQLQESGPGLVKPSETLSLTCTVSGGSINNYYWIWIRQPPGKGLEWIGYIYHSGSTNYNPSLKSRVTISVDTSKNQFSLKVSSVTAADTAVYYCANMVRGVYEDDYWGQGTLVTVSS
VL: DIQMTQSPSSLSASVGDRVTITCRASQSISNYLNWYQQKPGKAPKLLIFAASSLRSGVPSRFSGSGSGTDFTLTISSLHPEDFATYYCQQNYNTPLTFGPGTKVDIKR
Turning to B5, the MFI turned out to be 32400 MFI in test [1] and 33100 MFI in test [2].

B6: mAb10967 (antibody, V domains shown)
VH: EVQLVESGGGLVQPGGSLRLSCAASGFTVSSNYMSWVRQAPGKGLEWVSVIYPGGSTFYADSVKGRFTISRDNSKNTLYLQMNSLRAEDTAVYYCARDQRDFAWGQGTLVTVSS
VL: DIQMTQSPSSLSASVGDRVTITCQASQDISNYLNWYQQKPGKAPKLLIYDASNLETGVPSRFSGSGSGTDFTFTISGLQPEDIATYYCQQYDNLPPTFGQGTRLEIKR
B6: the MFI amounted to 29600 MFI in test [1] and 28700 MFI in test [2].

B7: mAb10933 (antibody, V domains shown)
VH: QVQLVESGGGLVKPGGSLRLSCAASGFTFSDYYMSWIRQAPGKGLEWVSYITYSGSTIYYADSVKGRFTISRDNAKSSLYLQMNSLRAEDTAVYYCARDRGTTMVPFDYWGQGTLVTVSS
VL: DIQMTQSPSSLSASVGDRVTITCQASQDITNYLNWYQQKPGKAPKLLIYAASNLETGVPSRFSGSGSGTDFTFTISGLQPEDIATYYCQQYDNLPLTFGGGTKVEIKR
In the case of B7, the MFI in test [4] stood at 18 MFI.

B8: mAb10954 (antibody, V domains shown)
VH: EVQLVESGGGLVQPGGSLRLSCAASGITVSSNYMSWVRQAPGKGLEWVSLIYSGGSTYYADSVKGRFTISRDNSKNTLYLQMNSLRVEDTAVYYCARDHGMAAAGYNYWGQGTLVTVSS
VL: DIQMTQSPSSLSASVGDRVTITCQASQDINKYLNWYQQKPGKAPKLLIYDASNLETGVPSRFSGSGSGTDFTFTINSLQPEDFATYFCQQYDNLPPAFGQGTKVEIKR
As for B8, the MFI turned out to be 31300 MFI in test [1] and 31800 MFI in test [2].

B9: mAb10955 (antibody, V domains shown)
VH: EVQLVESGGGLVQPGGSLRVSCAASGFTVSRNYMSWVRQAPGKGLEWVSVIYSGGSTFYADSVKGRFTISRDNSKNTLYLQMNSLRAEDTAIYYCARYIPRFDPWGQGTLVTVSS
VL: DIQMTQSPSSLSASVGDRVTITCQASQDISNYLNWFQQKPGRAPKLLIYDASNLETGVPSRFSGSGSGTDFTFTISSLQPEDIATYYCQQYDNLPITFGQGTRLEIKR
In the case of B9, the MFI in test [1] turned out to be 30800 MFI; in test [2], 31200 MFI.

B10: mAb10966 (antibody, V domains shown)
VH: EVQLVESGGGLVQPGGSLRLSCAASGLTVSSNYMSWVRQAPGKGLEWVSVIYSGGSTFYADSVKGRFTISRDNSKNTLYLQMNSLRPEDTAVYYCAREGRIAATGYGMDVWGQGTTVTVSS
VL: not shown
Take B10: the MFI in test [1] was determined as 30400 MFI; in test [2], 30800 MFI.

B11: mAb10969 (antibody, V domains shown)
VH: QVQLVESGGGVVQPGRSLRLSCAASGFTFSSYAMHWVRQAPGKGLEWVAVISYDGSNKYYADSVKGRFTISRDNSKNTLYLQMNSLRAEDTAVYYCARDGRTITMVRGVIDDAFDIWGQGTMVTVSS
VL: not shown
With B11, the MFI in test [1] was 31400 MFI.

B12: mAb10998 (antibody, V domains shown)
VH: EVQLVESGGGLVHPGGSLRLSCAASGLTVSSNYMSWVRQAPGKGLEWVSVIYSGGSTYYADSVKGRFTISRHNSKNTLFLQMNSLRAEDTAVYYCARDRPITGTTLDVWGQGTTVTVSS
VL: DIQMTQSPSSLFASVGDRVTITCRASQSISSYLNWYQQKPGKAPKLLIYAASSLQSGVPSRFSGSGSGTDFTLTISSLQPEDFAFYYCQQTYSTPPITFGQGTRLEIKR
In test [3], B12 registered an IC50 of 4.3 nM.

B13: mAb10939 (antibody, V domains shown)
VH: EVQLVESGGGLVQPGGSLRLSCAASGLTVSSNYMNWVRQVPGKGLEWVSVIYSGGSKFYVDSVKGRFTISRHNSKNTLYLQMNSLRPEDTAVYYCTRDAQYYGMDVWGQGTTVTVSS
VL: DIQMTQSPSSLSASVGDRVTITCRASQSISTYLHWYQQKPGEAPKLLIYAASSLQSGVPSRFSGSGSGTDFTLTISSLQPEDFATYYCQQSYSTPPEIFGQGTKLEIKR
Regarding B13, the results for the MFI in test [1] and in test [2] were 33900 MFI and 32900 MFI, respectively.

B14: mAb10965 (antibody, V domains shown)
VH: EVQLVESGGGLIQPGGSLRLSCAASVFTVSYNYMSWVRQAPGKGLEWVSVIYSGGSTYYADSVKGRFTISRDNSKNTLYLQMNSLRAEDTAVYYCARALPGWGGSFEYFDYWGQGTLVTVSS
VL: not shown
As to B14, the MFI in test [1] is 27100 MFI; in test [2], 29600 MFI.

B15: mAb10989 (antibody, V domains shown)
VH: QVQLVQSGAEVKKPGASVKVSCKASGYIFTGYYMHWVRQAPGQGLEWMGWINPNSGGANYAQKFQGRVTLTRDTSITTVYMELSRLRFDDTAVYYCARGSRYDWNQNNWFDPWGQGTLVTVSS
VL: QSALTQPASVSGSPGQSITISCTGTSSDVGTYNYVSWYQQHPGKAPKLMIFDVSNRPSGVSDRFSGSKSGNTASLTISGLQAEDEADYYCSSFTTSSTVVFGGGTKLTVLG
In the case of B15, the figures for the MFI in test [1] and in test [2] were 19600 MFI and 22400 MFI, respectively.

B16: mAb10971 (antibody, V domains shown)
VH: EVQLVESGGGLIQPGGSLRLSCAASGVTVSSNYMSWVRQAPGKGLEWVSVIYSGGSTFYSDSVKGRFSISRDNSKNTLYLQMNSLRAEDTAVYYCARDLYYYGMDVWGQGTTVTVSS
VL: DIQLTQSPSFLSASVGDRVTITCRASQGISTYLAWYQQKPGKAPKLLIYAASTLQSGVPSRFSGSGSGTEFTLTISSLQPEDFATYYCQQLDSYPGLTFGGGTKVEIKR
Turning to B16, the MFI in test [1] was 28700 MFI; in test [2], 30000 MFI.

B17: mAb10956 (antibody, V domains shown)
VH: EVQLVESGGGLVQPGGSLRLSCAASGLTVSSNYMSWVRQAPGKGLEWVSVIYSGGSTFYADSVKGRFTISRDNSKNTLYLQMNSLRAEDTAVYYCARDLIKYGMDVWGQGTTVTVSS
VL: not shown
B17: the MFI in test [1] turned out to be 28300 MFI; in test [2], 30200 MFI.

B18: mAb10957 (antibody, V domains shown)
VH: EVQLVESGGGLVQPGGSLRLSCAASGVTVSSNYMSWVRQAPGKGLEWVSVIYSGGSTFYADSVKGRFTISRDNSKNTLFLQMNSLRIEDTAVYYCARDLGPYGMDVWGQGTTVTVSS
VL: DIQLTQSPSFLSASVGDRVTITCRASQGISSYLAWYQQKPGKAPKLLIYAASTLQSGVPSRFSGSGSGTQFILTISSLQPEDFATYYCQQLNSYPGFTFGPGTKVDIKR
With B18, the MFI is 18700 MFI in test [1] and 22600 MFI in test [2].

B19: mAb11010 (antibody, V domains shown)
VH: QVQLVESGGGVVQPGRSLRLSCAASGFTFSSYGMHWVRQAPGKGLEWVAVISYDGSYKYYADSVKGRFTISRDNSKNTLYLQMNSLRAEDTAVYYCAIDGGTVTTIFDYWGQGTLVTVSS
VL: not shown
For the molecule B19, the IC50 in test [3] came out at 0.147 nM.

B20: mAb11006 (antibody, V domains shown)
VH: EVQLVESGGGLVQPGGSLRLSCAASGFIVSRNYMSWVRQAPGKGLEWVSVIYSGGSTFYADSVKGRFTISRHNSKNTLYLQMNSLKAEDTAVYYCARELRGYFDYWGQGTLVTVSS
VL: DIQLTQSPSFLSASVGDRVTITCWASQGISSYLAWYQQKPGKAPKLLIYAASTLQSGVPSRFSGSGSGTEFTLTISSLQPEDFATYYCQLLNSYPYTFGQGTKLEIKR
As to B20, the IC50 in test [3] was found to be 0.22 nM.

B21: mAb10915 (antibody, V domains shown)
VH: EVQLVESGGGLVQPGGSLRLSCAASGFTVSSNYMNWVRQAPGKGLEWVSVIYSGGSTFYADSVKGRFTISRHNSKNTLYLQMNSLRPEDTAVYYCARDLGGYFDYWGQGTLVTVSS
VL: not shown
With B21, the results for the MFI in test [1], in test [2] and in test [4] were 31800 MFI, 32400 MFI and 21 MFI, respectively.

B22: mAb11008 (antibody, V domains shown)
VH: EVQLVESGGGLVQPGGSLRLSCAASGFTVSSNYMTWVRQAPGKGLEWVSVIYSGGSTFYADSVKGRFTISRHNSENTLYLQMNSLRAEDTAVYYCARDLAAAGTDYWGQGALVTVSS
VL: DIQLTQSPSFLSASVGDRVTITCWASQGISSYLAWYQQKPGKAPKLLIYAASTLQSGVPSRFSGSGSGTEFTLTISSLQPDDFATYYCQHLNSYLYTFGQGTKLEIKR
For B22, the IC50 in test [3] turned out to be 1.49 nM.

Source of the values: patent US20240043504A1 (published 2024).
